In patent US9133440B2, “Generation of new pancreatic beta cells” (priority 2012, dated 2015):
Each block holds one molecule with its values, some of them ahead of it.

Legend:
[1] = tested on: new small islets developing from non-endocrine tissue; conditions: cited from earlier work; for levels of new islet markers NGN3, NKX6.1, SOX9, and INS: five days after treatment; for increase in the volume of new small islets developing from non-endocrine tissue: in vivo
Reg Receptor [2] = target: T1, Reg Receptor (Homo sapiens, UniProt O43909); assay: Direct binding of Perle peptides to purified Reg Receptor coated on 96 well plate (strep-HRP, absorbance at 405 nm); design: FLAG; made in house; host or cells: 293T cells (transient transfection, harvested after 72 hours); conditions: FIG. 9; for strength of binding to the Reg Receptor relative to the other peptides tested: comparison among 7-, 8-, 9-amino acid Perle peptides, HIP and scrambled control; for direct binding to the Reg Receptor: purified Reg Receptor coated on plate, peptides bound 1 hour at room temperature, absorbance at 405 nm
T1 sequence (O43909 1-919): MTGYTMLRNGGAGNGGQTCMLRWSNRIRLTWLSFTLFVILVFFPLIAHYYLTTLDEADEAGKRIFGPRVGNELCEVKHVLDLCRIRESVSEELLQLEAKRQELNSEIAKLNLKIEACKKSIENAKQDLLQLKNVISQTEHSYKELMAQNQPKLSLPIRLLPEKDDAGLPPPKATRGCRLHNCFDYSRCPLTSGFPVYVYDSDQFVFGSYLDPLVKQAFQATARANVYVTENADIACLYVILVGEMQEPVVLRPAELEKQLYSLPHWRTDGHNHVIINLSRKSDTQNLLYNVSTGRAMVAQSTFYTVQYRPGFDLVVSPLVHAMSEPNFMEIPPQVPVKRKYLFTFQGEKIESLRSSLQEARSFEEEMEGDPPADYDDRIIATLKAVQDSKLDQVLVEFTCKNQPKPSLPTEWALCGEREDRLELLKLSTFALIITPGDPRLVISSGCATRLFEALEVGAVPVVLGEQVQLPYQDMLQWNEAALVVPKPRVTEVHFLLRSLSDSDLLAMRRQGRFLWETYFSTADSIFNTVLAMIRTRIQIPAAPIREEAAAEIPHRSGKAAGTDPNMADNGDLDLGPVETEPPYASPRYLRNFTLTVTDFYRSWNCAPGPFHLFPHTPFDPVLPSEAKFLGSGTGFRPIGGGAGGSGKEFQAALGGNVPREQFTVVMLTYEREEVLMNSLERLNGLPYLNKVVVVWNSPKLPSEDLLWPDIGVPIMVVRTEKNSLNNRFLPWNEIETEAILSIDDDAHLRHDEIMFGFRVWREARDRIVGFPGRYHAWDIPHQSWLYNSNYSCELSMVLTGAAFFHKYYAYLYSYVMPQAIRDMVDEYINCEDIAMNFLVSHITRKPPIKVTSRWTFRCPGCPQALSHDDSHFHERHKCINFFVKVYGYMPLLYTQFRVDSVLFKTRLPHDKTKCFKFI
Description: Cells were collected after 72 hours. The Reg Receptor was tagged with FLAG epitope and FLAG resin was utilized to purify out the Reg Receptor. […] The Reg Receptor was purified by Anti-Flag M2 affinity gel. Target protein was confirmed by 4-12% SDS-PAGE and Western-blot. […] FIGS. 7b and 7c are the Western blot results showing that the purified protein is the Reg Receptor using the antibody to the Reg Receptor (CD104). The Reg Receptor is shown In FIG. 7 to be highly purified.
Plates were coated overnight coated plate and washed three times with 0.5×TBST and blocked with 3% BSA and rotated at room temperature for 1 hour. After blocking, plates were washed three times with 0.5×TBST. Peptides were then diluted with TBST buffer and added into wells in duplicate then left to bind at room temperature for 1 hour. After washing three times, 100 ng/ml strep-HRP was added into plate at 100 ul/well, and rotated at room temperature for one hour. ABST reagents were warmed to room temperature, mixed immediately before using. Then 100 ul was added to each well and read after 25 minutes reaction and absorbance was evaluated at 405 nm by a Spectramax M5 plate reader. The purified Reg Receptor was coated on plates. Then plates were blocked with BSA solution. Subsequently, the Perle peptides were added into the wells, and HRP-straptavidin and its substrates were added into the wells to reveal the interaction between Receptor and the Perle peptide.

[3] = cited from earlier work
[4] = target: 20 amino acid Reg Receptor sequence (SEQ ID NO:9) (amino acids 117-136) (Homo sapiens, UniProt O43909); assay: Enzyme ImmunoAssay titers of polyclonal antibodies raised to the 20-amino acid Reg Receptor sequence; format: binding; conditions: reference range of FIG. 13; bleed after day 0 and day 21 boosts
Description: FIGS. 11-13 were from studies undertaken to develop stimulatory antibodies to the Reg Receptor to accelerate the progression of beta cell formation by stimulating potential binding sites on the Reg Receptor. For the production of […] antibodies, many sequences were evaluated within the N-terminal portion of Reg receptor (amino acids 1-332) (SEQ ID NO:13), which is the amino acid region believed to be the binding domain for the Reg peptides within the Reg receptor that is not contained in the other members of the of Exostoses family, and thus is hypothesized to be the Reg binding domain.
Data sets were taken from the bleed after the day 0 and day 21 boosts. The animals were injected with a peptide of SEQ ID NO: 9 and were conjugated to keyhole limpet hemocyanin (KLH). […] At a dilution of 1:750,000, the absorbance fell within a range of 0.45 to 0.9. […]
Previous studies have identified that Reg proteins and peptides act through a 919-amino acid cell-surface protein. […] For the production of stimulatory antibodies, sequences were evaluated within the N-terminal portion of the putative Reg Receptor (amino acids 1-332) (SEQ ID NO:13), which is the amino acid region of Reg Receptor that is not contained in the other members of the of Exostoses family, and thus is hypothesized to be the Reg binding domain.

Reg Receptor [5] = target: T1, Reg Receptor; assay: Western blot analysis of Reg Receptor translocation from cytoplasmic membrane to nucleus in human extra-islet ductal cells; format: cell-based; conditions: Perle peptide 167 nM once a day for four days, cytosolic and nuclear fractions, shorter and longer exposure times
Description: Western blot analysis identified the presence of the Reg receptor on the cytoplasmic membrane and the movement of the Reg Receptor from the cytoplasmic membrane through the cytoplasm to the nucleus in the presence of the Perle peptides. Cytoplasmic extracts were obtained in 10 mM HEPES (pH 8.0), 1 mM EDTA, 1.5 mM MgCl2, 10 mM KCl, 0.5 mM DTT, 200 mM sucrose and 0.5% Nonidet P-40. Nuclear extracts were obtained in 20 mM HEPES (pH 7.9), 0.75 mM MgCl2, 210 mM NaCl, 50 mM KCl, 1 mM EDTA, 10% glycerol, and 0.5 mM DTT. Both extraction buffers contained 0.5 mM PMSF, 1 μg/ml leupeptin, 1 μg/ml aprotinin, 2.5 mM Na4P2O7, 1 mM β-glycerophosphate, and 1 mM Na3VO4. […] Secondary signals were developed with chemiluminescence substrate and analyzed by autoradiography. […]
Human extra-islet ductal cells were seeded in T75 flasks in Dulbecco's Modified Eagle media containing 10% fetal bovine serum. […] In these cell extracts the total protein levels were determined, and 50 micrograms of total protein were used to perform the western blot analysis. […]
Analyses were performed from cytoplasmic extracts were obtained in 10 mM HEPES (pH 8.0), 1 mM EDTA, 1.5 mM MgCl2, 10 mM KCl, 0.5 mM DTT, 200 mM sucrose and 0.5% Nonidet P-40. […] Secondary signals were developed with chemiluminescence substrate and analyzed by autoradiography. […]

[6] = tested on: STZ-rendered diabetic mice; conditions: cited from earlier work
[7] = tested on: human pancreatic ductal tissue devoid of islets; conditions: cited from earlier work

Molecule: INGAP: 15-amino acid peptide within the hamster Reg3gamma peptide sequence, prior art (IGLHDPSHGTLPNGS; listed as Mesocricetus auratus)
- levels of new islet markers NGN3, NKX6.1, SOX9, and INS [1]: increased levels
- increase in the volume of new small islets developing from non-endocrine tissue [1]: 2 fold
- rise in stimulated C-peptide ([3]; human type 1 patients, by day 56, p<0.001): 27%
- increase in stimulated C-peptide ([3]; type 1 patients, p=0.0057): 27%

Molecule: NVWIGLHDP (listed as Homo sapiens) [SEQ. ID NO. 1, 9-amino acid Perle peptide within human Reg1a and Reg1b]
- direct binding to the Reg Receptor (Reg Receptor [2]): demonstrated binding
- direct binding to the Reg Receptor (Reg Receptor [2]; listed as 9-amino acid Perle peptide): bind directly

Molecule: SEQ ID NO: 9: 20-amino acid binding site within the human Reg receptor (amino acids 117-136), used as immunogen (CKKSIENAKQDLLQLKNVIS; listed as Homo sapiens)
- response to the antigen according to the polyclonal titer reference range [4]: high response

Molecule: VWIGLHDP (listed as Homo sapiens) [SEQ. ID NO. 4, 8-amino acid Perle peptide within human Reg1a, Reg1b and Reg3a]
- translocation of the Reg Receptor from the cytoplasm to the nucleus (Reg Receptor [5]; listed as 8-amino acid Perle peptide): greatest ability
- translocation of the Reg Receptor from the cytoplasm to the nucleus (Reg Receptor [5]; listed as 8-amino-acid Perle Peptide): greatest impact
- strength of binding to the Reg Receptor relative to the other peptides tested (Reg Receptor [2]): greatest binding
- strength of binding to the Reg Receptor relative to the other peptides tested (Reg Receptor [2]; listed as 8-amino acid peptide): strongest in binding
- direct binding to the Reg Receptor (Reg Receptor [2]): bind directly

B1: Reg3a protein: human Reg3a gene protein given to ductal tissue and STZ diabetic mice in the inventor's earlier study (protein, listed as Homo sapiens)
chain: MLPPMALPSVSWMLLSCLMLLSQVQGEEPQRELPSARIRCPKGSKAYGSHCYALFLSPKSWTDADLACQKRPSGNLVSVLSGAEGSFVSSLVKSIGNSYSYVWIGLHDPTQGTEPNGEGWEWSSSDVMNYFAWERNPSTISSPGHCASLSRSTAFLRWKDYNCNVRLPYVCKFTD
- rise in total beta cells staining insulin ([6]; STZ-rendered diabetic mice): 3 fold
- fasting glucose ([6]; overnight fast, morning of day 39 of treatment, P=0.020 vs placebo): 111.00 ± 11.4 mg/dL
- insulin concentrations [7]: significant increase

Continued, in another order:

- direct binding to the Reg Receptor (Reg Receptor [2]): no direct binding
Molecule: HIP: 14-amino Reg 3a peptide sequence (Human Proislet Peptide), prior art (IGLHDPTQGTEPNG; listed as Homo sapiens) [reference compound]
- levels of new islet markers NGN3, NKX6.1, SOX9, and INS [1]: increased levels
- increase in the volume of new small islets developing from non-endocrine tissue [1]: 2 fold
- strength of binding to the Reg Receptor relative to the other peptides tested (Reg Receptor [2]): same level of binding as the scrambled peptide

- direct binding to the Reg Receptor (Reg Receptor [2]): demonstrated binding
- direct binding to the Reg Receptor (Reg Receptor [2]; listed as 7-amino acid Perle peptide): bind directly
Molecule: WIGLHDP (listed as Homo sapiens) [SEQ. ID NO. 7, 7-amino acid Perle peptide within human Reg1a, Reg1b, Reg3a and Reg4]
